In the supplement of paper PMC10065799, “High-throughput profiling of sequence recognition by tyrosine kinases and SH2 domains using bacterial peptide display” (eLife, 2023):
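Also: peptide library displayed on the E. coli surface as eCPX fusions, selected cells deep-sequenced, score is each peptide's frequency after selection divided by its frequency in the input.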

These sequences were tested against c-Src SH2 (assay: SH2 binding enrichment of the phosphorylated peptide, bacterial display (enrichment ratio); higher = better substrate or ligand; peptides without Tyr show the background).
Sequence AKRKGYDMRVD [NEB_Y2770] has an SH2 binding enrichment of 0.464.
Sequence NDPMEYAKQHG [ASS1_Y163_L160P] has an SH2 binding enrichment of 0.457.
KPGVNYFFRVS showed an SH2 binding enrichment of 0.463.
In the case of PPLMLYNPTTF [EGFR_Y270_YF], the SH2 binding enrichment was 0.278.
YEEDSYSHIMA [FDPS_Y388] gave an SH2 binding enrichment of 2.41.
QEALEYFMKQV [PIK3CA_Y1038_M1043V] gave an SH2 binding enrichment of 0.472.
IRFPPYTDWNQ [ALDH3B2_Y365_H361R_YF] was tested, and the SH2 binding enrichment was 0.768.
Work on RQRTAYFSLNT [CDH1_Y68_D72N] yielded an SH2 binding enrichment of 0.871.
SLFNGYVYSGM [NEIL3_Y71_V76M] gave an SH2 binding enrichment of 2.6.
With IVFTSYFLTIL [TAS2R16_Y239] the SH2 binding enrichment was 0.897.
IENKPYGMSDP [RET_Y1062_L1061P] was tested, and the SH2 binding enrichment was 0.401.
KLSCSYSHWSA [C4BPA_Y470] gave an SH2 binding enrichment of 0.732.
In the case of ATATEYHTTSH [SLC4A1_Y46_D45E], the SH2 binding enrichment was 0.548.
Sequence PTKNDYWAMPA [WWOX_Y287_L291P] has an SH2 binding enrichment of 0.586.
Sequence AQESNYRLLRR [SLC20A2_Y377] has an SH2 binding enrichment of 0.456.
RLEPVYFVAPA [LAMC2_Y250_D247E] showed an SH2 binding enrichment of 0.625.
Work on RPPFTYATLIH [FOXP3_Y342_R347H] yielded an SH2 binding enrichment of 1.98.
FNNPAYFVLEG [INPPL1_Y986_YF] gave an SH2 binding enrichment of 2.06.
SVVVPYEPPEL [TP53_Y220_V225L] was tested, and the SH2 binding enrichment was 0.683.
Work on VTRLWYPVCFG [ITK_Y336_R335W] yielded an SH2 binding enrichment of 0.745.
LQTYRYHGHSM [PDHA1_Y289] showed an SH2 binding enrichment of 0.561.
WDLPEYSFKDP [ITGA3_Y237_S235P_YF] was tested, and the SH2 binding enrichment was 0.502.
In the case of DLDPNYVLSSR [CKM_Y125], the SH2 binding enrichment was 0.528.
Sequence NVADHYRVYKP [ATP6V0D2_Y271_G272R] has an SH2 binding enrichment of 0.469.
In the case of VKANTYEKYWL [GATM_Y100_P105L], the SH2 binding enrichment was 1.14.
GSERDYTFDEL [EIF2S2_Y174_E177D_YF] was tested, and the SH2 binding enrichment was 0.508.
In the case of KNSSIYVVANI [VNN1_Y134_N131S], the SH2 binding enrichment was 0.646.
With HLPAGYIIPLQ [GAA_Y822_R819P] the SH2 binding enrichment was 0.987.
LAETSYVTVLE [MAGEA1_Y276_K278T] was tested, and the SH2 binding enrichment was 1.25.
PDSVDYPKKGY [CTSK_Y121_R122P] gave an SH2 binding enrichment of 0.601.
For VEYAKYGSLQG [RET_Y809_R813Q], the SH2 binding enrichment was 0.786.
In the case of DDKEYYSVHNK [MET_Y1235_Y1230D], the SH2 binding enrichment was 0.461.
NAMRRYIEEFQ [MNS1_Y244] showed an SH2 binding enrichment of 0.452.

Each sequence was assayed against SHP2-C SH2 in the same assay as above.
AKRKGYDMRVD [NEB_Y2770] gave an SH2 binding enrichment of 0.728.
In the case of NDPMEYAKQHG [ASS1_Y163_L160P], the SH2 binding enrichment was 0.545.
Work on KPGVNYFFRVS yielded an SH2 binding enrichment of 0.749.
For PPLMLYNPTTF [EGFR_Y270_YF], the SH2 binding enrichment was 0.785.
YEEDSYSHIMA [FDPS_Y388] was tested, and the SH2 binding enrichment was 0.564.
QEALEYFMKQV [PIK3CA_Y1038_M1043V] was tested, and the SH2 binding enrichment was 1.05.
IRFPPYTDWNQ [ALDH3B2_Y365_H361R_YF] showed an SH2 binding enrichment of 0.748.
RQRTAYFSLNT [CDH1_Y68_D72N] was tested, and the SH2 binding enrichment was 14.9.
SLFNGYVYSGM [NEIL3_Y71_V76M] gave an SH2 binding enrichment of 2.05.
For IVFTSYFLTIL [TAS2R16_Y239], the SH2 binding enrichment was 0.955.
With IENKPYGMSDP [RET_Y1062_L1061P] the SH2 binding enrichment was 0.648.
KLSCSYSHWSA [C4BPA_Y470] showed an SH2 binding enrichment of 0.802.
In the case of ATATEYHTTSH [SLC4A1_Y46_D45E], the SH2 binding enrichment was 0.518.
For PTKNDYWAMPA [WWOX_Y287_L291P], the SH2 binding enrichment was 0.669.
AQESNYRLLRR [SLC20A2_Y377] showed an SH2 binding enrichment of 0.439.
RLEPVYFVAPA [LAMC2_Y250_D247E] was tested, and the SH2 binding enrichment was 0.709.
RPPFTYATLIH [FOXP3_Y342_R347H] showed an SH2 binding enrichment of 32.6.
Sequence FNNPAYFVLEG [INPPL1_Y986_YF] has an SH2 binding enrichment of 0.953.
SVVVPYEPPEL [TP53_Y220_V225L] was tested, and the SH2 binding enrichment was 0.717.
In the case of VTRLWYPVCFG [ITK_Y336_R335W], the SH2 binding enrichment was 0.936.
LQTYRYHGHSM [PDHA1_Y289] showed an SH2 binding enrichment of 0.646.
WDLPEYSFKDP [ITGA3_Y237_S235P_YF] gave an SH2 binding enrichment of 1.04.
In the case of DLDPNYVLSSR [CKM_Y125], the SH2 binding enrichment was 0.75.
Sequence NVADHYRVYKP [ATP6V0D2_Y271_G272R] has an SH2 binding enrichment of 0.517.
For VKANTYEKYWL [GATM_Y100_P105L], the SH2 binding enrichment was 0.687.
GSERDYTFDEL [EIF2S2_Y174_E177D_YF] showed an SH2 binding enrichment of 0.681.
KNSSIYVVANI [VNN1_Y134_N131S] gave an SH2 binding enrichment of 0.942.
Sequence HLPAGYIIPLQ [GAA_Y822_R819P] has an SH2 binding enrichment of 11.3.
For LAETSYVTVLE [MAGEA1_Y276_K278T], the SH2 binding enrichment was 2.48.
For PDSVDYPKKGY [CTSK_Y121_R122P], the SH2 binding enrichment was 0.724.
Work on VEYAKYGSLQG [RET_Y809_R813Q] yielded an SH2 binding enrichment of 4.76.
Work on DDKEYYSVHNK [MET_Y1235_Y1230D] yielded an SH2 binding enrichment of 0.961.
NAMRRYIEEFQ [MNS1_Y244] showed an SH2 binding enrichment of 0.585.
